The target of the assay is A/Anhui/1/2013 H7N9 NA, thrombin-digested (for crystals) (influenza A virus A/Anhui/1/2013 (H7N9)). Kind of assay: crystal structure.

By stoichiometry N is commonly meant the number of molecules, sites or subunits per partner or assembly. Take “A/Anhui/1/2013 H7N9 NA, thrombin-digested (for crystals) (domain or fragment)”: the stoichiometry N stood at 4.

The values above are taken from publication PMC7542365 (mBio, 2020).
